Results on two proteins are retold here after article PMC9157467, “A cryptic phosphate-binding pocket on the SPFH domain of human stomatin that regulates a novel fibril-like self-assembly” (Current Research in Structural Biology, 2022).

This data set deals with the molecule itself. The experiment in a line: light scattering at 320 nm; lyophilized protein suspended to 400 uM in 50 mM sodium phosphate pH 6.0, 100 mM NaCl or 50 mM bis-Tris/HCl pH 6.0, 100 mM NaCl (mutants also at high phosphate); dissolution followed over time.

B1: hSTOM(SPFH)-[R125A] (domain or fragment, human, UniProt P27105 94-202, looked up)
chain: VDMRTISFDIPPQEILTKDSVTISVDGVVYYAVQNATLAVANITNADSATRLLAQTTLRNVLGTKNLSQILSDREEIAHNMQSTLDDATDAWGIKVERVEIKDVKLPVQ
notes: human stomatin (STOM), SPFH domain, residues 94-202, with R125A; Same construct as m1 with one alanine substitution (QuikChange); source: E. coli BL21 (DE3), purified (DEAE Sepharose, Glutathione Sepharose 4 Fast Flow, thrombin cleavage, Superdex 75)
As to B1, the binding result is on record as “binds”.

B2: hSTOM(SPFH)-[K188A] (domain or fragment, human, UniProt P27105 94-202, looked up)
chain: VDMRTISFDIPPQEILTKDSVTISVDGVVYYRVQNATLAVANITNADSATRLLAQTTLRNVLGTKNLSQILSDREEIAHNMQSTLDDATDAWGIAVERVEIKDVKLPVQ
notes: human stomatin (STOM), SPFH domain, residues 94-202, with K188A; Same construct as m1 with one alanine substitution (QuikChange); source: E. coli BL21 (DE3), purified (DEAE Sepharose, Glutathione Sepharose 4 Fast Flow, thrombin cleavage, Superdex 75)
Regarding B2, the binding result was “binds”.
